Results on 2 substances are retold here after article PMC3463532.

Experiment [1] deals with Dictyostelium discoideum p97, purified recombinant wild-type (D. discoideum) (UniProt P90532). The experiment in a line: native gel or EMSA; blue native PAGE (BN-PAGE) of the affinity purified recombinant protein, Coomassie staining; SDS-PAGE beside it; monomers to hexamer.
Experiment [2] concerns the target Dictyostelium discoideum p97^R155C, purified recombinant (D. discoideum) (UniProt P90532). Described as above.

Consider “Dictyostelium discoideum p97, purified recombinant wild-type (from UniProt P90532 1-793) (natural protein)”, for which the stoichiometry N (usually the number of molecules, sites or subunits per partner or assembly) in experiment [1] stood at 6. For the substance “Dictyostelium discoideum p97^R155C, purified recombinant (from UniProt P90532 1-793) (natural protein)”, the stoichiometry N in experiment [2] amounted to 6.
